We go through one substance from PMC8849102.

The target in the experiment is recombinant human ICAM-5 Fc Chimera (human) (UniProt Q9UMF0). As to the kind of experiment: pull-down; ICAM-5 Fc chimera covalently attached to magnetic Dynabeads; incubated with the 1.11 (membrane-associated) or 1.20 g/cm^3 (naked) viral density fraction for 1 h at 33°C, then overnight at 4°C; beads rinsed 2x for 10 min in PBS; bound virus read as viral titer (TCID50) after PBS plus 0.1% NP-40; control: nonspecific antibody-coated beads.
Chain of UniProt Q9UMF0 (Q9UMF0 32-835, stated change not applied): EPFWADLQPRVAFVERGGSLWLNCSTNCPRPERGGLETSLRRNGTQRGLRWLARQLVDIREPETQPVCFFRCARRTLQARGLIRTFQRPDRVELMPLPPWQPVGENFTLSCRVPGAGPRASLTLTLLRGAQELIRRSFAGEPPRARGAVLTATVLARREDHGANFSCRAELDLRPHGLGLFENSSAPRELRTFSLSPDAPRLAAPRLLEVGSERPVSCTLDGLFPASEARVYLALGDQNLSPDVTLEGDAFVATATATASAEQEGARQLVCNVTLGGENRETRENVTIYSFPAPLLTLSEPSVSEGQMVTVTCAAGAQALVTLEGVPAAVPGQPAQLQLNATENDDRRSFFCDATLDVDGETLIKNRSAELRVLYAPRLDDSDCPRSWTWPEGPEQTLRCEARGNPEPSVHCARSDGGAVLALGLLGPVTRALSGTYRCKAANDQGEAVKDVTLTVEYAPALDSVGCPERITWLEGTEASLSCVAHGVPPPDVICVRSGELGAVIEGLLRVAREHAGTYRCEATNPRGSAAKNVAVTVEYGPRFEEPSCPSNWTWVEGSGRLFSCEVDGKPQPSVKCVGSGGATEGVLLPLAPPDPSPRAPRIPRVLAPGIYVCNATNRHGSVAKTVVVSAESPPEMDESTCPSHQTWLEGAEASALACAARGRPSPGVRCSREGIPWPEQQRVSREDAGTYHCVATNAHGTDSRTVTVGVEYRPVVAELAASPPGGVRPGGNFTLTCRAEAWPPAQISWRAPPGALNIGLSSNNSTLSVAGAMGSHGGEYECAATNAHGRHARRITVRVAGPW

Turning to “Enterovirus D68 (EV-D68) viral particles, strain US/MO/14-18947 (complex)”, the fold viral titer immunoprecipitated over control beads worked out at 1000 fold.
